Several values for one entry are separate records, joined by “and”; a condition that tells them apart may be missing. Equal values may be shown once. Read-outs that look alike come from different tables or passages of the source.
Legend:
[1] = target: soluble recombinant HLA-DR4 (HLA-DRβ1*04:01) (human); test: ELISA
[2] = target: soluble recombinant HLA-DR4 (HLA-DRβ1*04:01) (human); test: ELISA; remark: listed apart in the source
[3] = target: soluble recombinant HLA-DR4 (HLA-DRβ1*04:01) (human)
[4] = target: soluble recombinant HLA-DR4 (HLA-DRβ1*04:01) (human); test: dissociation kinetics (LB3.1 capture, europium-streptavidin time-resolved fluorescence)
[5] = target: soluble recombinant HLA-DR4 (HLA-DRβ1*04:01) (human); test: ELISA; apparent Kd; direct binding of biotin-labeled peptide to DR4 as in the DR-ELISA (72 h), binding reactions set up with 1 µM HLA-DM

Row | Substance | IC50 [1] | Kd [1] | other results
1 | HA 306-318 peptide, unlabeled | 310 nM | – | IC50 [2]: 172000 nM
2 | QNT-5 332-345 peptide, unlabeled | 1700 nM | – | –
3 | QNT-Y peptide (QNT-5 analogue L335Y), unlabeled | 130 nM | – | –
4 | biotin-labeled HA 306-318 peptide | – | – | half-life [3]: 620 h
5 | biotin-labeled T* 326-345 peptide (NF-54 variant) | – | 248 nM and 123 nM | –
6 | biotin-labeled T*-1 327-338 peptide | – | 42.6 nM | half-life [4]: 63.9 h; half-life with HLA-DM [4]: 4.9 h; Kd [5]: 51.6 nM

Reference: paper PMC4077652, “An Unstable Th Epitope of P. falciparum Fosters Central Memory T Cells and Anti-CS Antibody Responses” (PLoS ONE, 2014)
